The text below walks through data of PMC3690595 (Biochemistry, 2013).

This data set concerns the molecule itself. The data set can be described thus: 2D-DIGE with tandem mass spectrometry of picked spots.

B1: βB1-crystallin (natural protein, mouse (endogenous in mouse lens), UniProt Q9WVJ5 1-250, looked up)
chain: MSQAAKASATTAVNPGPDGKGKGAPSTGPAPAPGPTPVPASVPRPAAKVGDLPPGSYRLIVFEQENFQGRRVEFSGECLNLGDRGFDRVRSLIVVSGPWVAFEQSAFRGEMFVLEKGEYPRWDTWTSSYRSDRLMSFRPIRMDSQEHKICLFEGANFKGNTMEIQEDDVPSLWVYGFCDRVGSITVSGGTWVGYQYPGYRGYQYLLEPGDFRHWNEWGAFQPQMQAVRRLRDRQWHQEGCFPVLTAEPPK
With B1, the stoichiometry N (in general, the number of molecules, sites or subunits per partner or assembly) came to 2.
